{"source": "patent US20180155451A1", "about": "(published 2018)", "binders": {"B1": {"name": "GpH7-A5/GpH7-B3 variant H268_13S/GpL16-k0 (antibody, human IgG1, kappa)", "heavy 1": "not shown", "heavy 2": "not shown", "light": "DIVMTQSPLSLPVTPGEPASISCQASESLVHSNRNTYLHWYLQKPGQSPQLLIYKVSNRFSGVPDRFSGSGSGTDFTLKISRVEAEDVGVYYCSQNTHVPPTFGQGTKVEIERTVAAPSVFIFPPSDEQLKSGTASVVCLLNNFYPREAKVQWKVDNALQSGNSQESVTEQDSKDSTYSLSSTLTLSKADYEKHKVYACEVTHQGLSSPVTKSFNRGEC", "notes": "heterodimerized IgG1; alteration in the GpH7-B3 H chain only; also called He Ab"}, "B2": {"name": "GpH7-A5/GpH7-B3 variant H268_18N/GpL16-k0 (antibody, human IgG1, kappa)", "heavy 1": "not shown", "heavy 2": "not shown", "light": "B1 light", "notes": "as for B1"}, "B3": {"name": "GpH7-A5/GpH7-B3 variant K326_03V/GpL16-k0 (antibody, human IgG1, kappa)", "heavy 1": "not shown", "heavy 2": "not shown", "light": "B1 light", "notes": "as for B1"}, "B4": {"name": "GpH7-A5/GpH7-B3 variant K326_04F/GpL16-k0 (antibody, human IgG1, kappa)", "heavy 1": "not shown", "heavy 2": "not shown", "light": "B1 light", "notes": "as for B1"}, "B5": {"name": "GpH7-A5/GpH7-B3 variant K326_06M/GpL16-k0 (antibody, human IgG1, kappa)", "heavy 1": "not shown", "heavy 2": "not shown", "light": "B1 light", "notes": "as for B1"}, "B6": {"name": "GpH7-A5/GpH7-B3 variant K326_07I/GpL16-k0 (antibody, human IgG1, kappa)", "heavy 1": "not shown", "heavy 2": "not shown", "light": "B1 light", "notes": "as for B1"}, "B7": {"name": "GpH7-A5/GpH7-B3 variant K326_08L/GpL16-k0 (antibody, human IgG1, kappa)", "heavy 1": "not shown", "heavy 2": "not shown", "light": "B1 light", "notes": "as for B1"}, "B8": {"name": "GpH7-A5/GpH7-B3 variant K326_09D/GpL16-k0 (antibody, human IgG1, kappa)", "heavy 1": "not shown", "heavy 2": "not shown", "light": "B1 light", "notes": "as for B1"}, "B9": {"name": "GpH7-A5/GpH7-B3 variant K326_10E/GpL16-k0 (antibody, human IgG1, kappa)", "heavy 1": "not shown", "heavy 2": "not shown", "light": "B1 light", "notes": "as for B1"}, "B10": {"name": "GpH7-A5/GpH7-B3 variant K326_14T/GpL16-k0 (antibody, human IgG1, kappa)", "heavy 1": "not shown", "heavy 2": "not shown", "light": "B1 light", "notes": "as for B1"}, "B11": {"name": "GpH7-A5/GpH7-B3 variant K326_15Y/GpL16-k0 (antibody, human IgG1, kappa)", "heavy 1": "not shown", "heavy 2": "not shown", "light": "B1 light", "notes": "as for B1"}, "B12": {"name": "GpH7-A5/GpH7-B3 variant K326_19Q/GpL16-k0 (antibody, human IgG1, kappa)", "heavy 1": "not shown", "heavy 2": "not shown", "light": "B1 light", "notes": "as for B1"}, "B13": {"name": "GpH7-A5/GpH7-B3 variant K326_20W/GpL16-k0 (antibody, human IgG1, kappa)", "heavy 1": "not shown", "heavy 2": "not shown", "light": "B1 light", "notes": "as for B1"}, "B14": {"name": "GpH7-A5/GpH7-B3 variant P271_01G/GpL16-k0 (antibody, human IgG1, kappa)", "heavy 1": "not shown", "heavy 2": "not shown", "light": "B1 light", "notes": "as for B1"}, "B15": {"name": "GpH7-A5/GpH7-B3 variant S267_10E/GpL16-k0 (He Ab) (antibody, human IgG1, kappa)", "heavy 1": "not shown", "heavy 2": "not shown", "light": "B1 light", "notes": "Anti-glypican-3 heterodimerized IgG1 antibody; the mutation stands in only one H chain (the GpH7-B3 chain); also called S267E in one H chain"}, "B16": {"name": "GpH7-A5/GpH7-B3 variant H268_01G/GpL16-k0 (He Ab) (antibody, human IgG1, kappa)", "heavy 1": "not shown", "heavy 2": "not shown", "light": "B1 light", "notes": "Anti-glypican-3 heterodimerized IgG1 antibody; the mutation stands in only one H chain (the GpH7-B3 chain); also called H268G in one H chain"}, "B17": {"name": "GpH7-A5/GpH7-B3 variant H268_02A/GpL16-k0 (He Ab) (antibody, human IgG1, kappa)", "heavy 1": "not shown", "heavy 2": "not shown", "light": "B1 light", "notes": "Anti-glypican-3 heterodimerized IgG1 antibody; the mutation stands in only one H chain (the GpH7-B3 chain); also called H268A in one H chain"}, "B18": {"name": "GpH7-A5/GpH7-B3 variant H268_05P/GpL16-k0 (He Ab) (antibody, human IgG1, kappa)", "heavy 1": "not shown", "heavy 2": "not shown", "light": "B1 light", "notes": "Anti-glypican-3 heterodimerized IgG1 antibody; the mutation stands in only one H chain (the GpH7-B3 chain); also called H268P in one H chain"}, "B19": {"name": "GpH7-A5/GpH7-B3 variant H268_13S/GpL16-k0 (He Ab) (antibody, human IgG1, kappa)", "heavy 1": "not shown", "heavy 2": "not shown", "light": "B1 light", "notes": "Anti-glypican-3 heterodimerized IgG1 antibody; the mutation stands in only one H chain (the GpH7-B3 chain); also called H268S in one H chain"}}, "data": [{"biological_target": "T1, FcγRIa (human, UniProt P12314 16-292)", "T1 construct": "extracellular domain; also called FcgRI; 1a; not shown: His tag at the C terminus", "T1 sequence (P12314 16-292)": "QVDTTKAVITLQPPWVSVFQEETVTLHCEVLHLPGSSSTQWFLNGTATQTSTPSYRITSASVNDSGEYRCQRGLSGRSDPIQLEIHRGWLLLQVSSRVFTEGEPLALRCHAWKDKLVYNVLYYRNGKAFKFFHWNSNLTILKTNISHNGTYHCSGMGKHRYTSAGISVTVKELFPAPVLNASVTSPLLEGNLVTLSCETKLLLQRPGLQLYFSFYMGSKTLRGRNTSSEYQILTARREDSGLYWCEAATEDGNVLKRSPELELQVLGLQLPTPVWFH", "test": "SPR (Biacore); He/Con_1a (FcγRIa) divided by He/Con_2b (FcγRIIb)", "units": {"Ia/IIb He_1a/2b": "ratio"}, "values": [{"binder": "B1", "Ia/IIb He_1a/2b": 0.68}, {"binder": "B2", "Ia/IIb He_1a/2b": 0.69}, {"binder": "B3", "Ia/IIb He_1a/2b": 0.58}, {"binder": "B4", "Ia/IIb He_1a/2b": 0.66}, {"binder": "B5", "Ia/IIb He_1a/2b": 0.62}, {"binder": "B6", "Ia/IIb He_1a/2b": 0.51}, {"binder": "B7", "Ia/IIb He_1a/2b": 0.57}, {"binder": "B8", "Ia/IIb He_1a/2b": 0.54}, {"binder": "B9", "Ia/IIb He_1a/2b": 0.52}, {"binder": "B10", "Ia/IIb He_1a/2b": 0.7}, {"binder": "B11", "Ia/IIb He_1a/2b": 0.66}, {"binder": "B12", "Ia/IIb He_1a/2b": 0.73}, {"binder": "B13", "Ia/IIb He_1a/2b": 0.69}, {"binder": "B14", "Ia/IIb He_1a/2b": 0.54}]}, {"biological_target": "T2, FcγRIIIa extracellular domain with C-terminal His tag (human, UniProt P08637 17-208)", "T2 construct": "extracellular domain; also called FcgRIIIa; 3a; not shown: His tag attached to the C terminus", "T2 sequence (P08637 17-208)": "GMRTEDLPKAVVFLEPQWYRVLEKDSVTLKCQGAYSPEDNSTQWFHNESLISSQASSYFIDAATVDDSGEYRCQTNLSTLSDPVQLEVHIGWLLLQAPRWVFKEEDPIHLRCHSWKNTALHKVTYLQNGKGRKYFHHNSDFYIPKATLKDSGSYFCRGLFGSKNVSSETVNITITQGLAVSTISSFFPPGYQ", "test": "SPR (Biacore), antibody captured on antigen peptide chip, FcγR as analyte; bound amount against control heterodimerized antibody", "experimental": "(§1) Analysis of interaction between objective antibody and the FcγR was carried out using Biacore T100 (GE Healthcare). HBS-EP+ (GE Healthcare) was used as the running buffer, and the measurement temperature was set to 25° C. Chips produced by immobilizing the antigen peptide by the amine coupling method to a Series S Sencor Chip CM5 (GE Healthcare), or alternatively, chips produced by allowing preliminarily biotinylated antigen peptides to interact with and immobilize onto a Series S Sensor Chip SA (certified) (GE Healthcare) were used. Antibodies of interest were captured onto an antigen peptide-immobilized chip, and allowed to interact to each FcγR diluted with running buffer. To regenerate and repeatedly use the chip, the antibodies captured on the chip were washed off by reacting 10 mM glycine-HCl, pH 1.5.\n(§2) The FcγR-binding activity of each antibody was assessed primarily using as an indicator the FcγR-binding activity and dissociation constant for FcγR.", "values": [{"binder": "B15", "He/Con_3a (IIIa binding)": "91.9 relative binding activity, GpH7-A5/GpH7-B3/GpL16-k0 = 100"}, {"binder": "B16", "He/Con_3a (IIIa binding)": "96.7 relative binding activity, GpH7-A5/GpH7-B3/GpL16-k0 = 100"}, {"binder": "B17", "He/Con_3a (IIIa binding)": "122 relative binding activity, GpH7-A5/GpH7-B3/GpL16-k0 = 100"}, {"binder": "B18", "He/Con_3a (IIIa binding)": "76.4 relative binding activity, GpH7-A5/GpH7-B3/GpL16-k0 = 100"}, {"binder": "B19", "He/Con_3a (IIIa binding)": "122 relative binding activity, GpH7-A5/GpH7-B3/GpL16-k0 = 100"}]}, {"biological_target": "T3, FcγRIIb extracellular domain with C-terminal His tag (human, UniProt P31994 43-217)", "T3 construct": "extracellular domain; Expressed in FreeStyle293 cells and used as the analyte in Biacore; also called FcgRIIb; 2b; not shown: His tag attached to the C terminus", "T3 sequence (looked up)": "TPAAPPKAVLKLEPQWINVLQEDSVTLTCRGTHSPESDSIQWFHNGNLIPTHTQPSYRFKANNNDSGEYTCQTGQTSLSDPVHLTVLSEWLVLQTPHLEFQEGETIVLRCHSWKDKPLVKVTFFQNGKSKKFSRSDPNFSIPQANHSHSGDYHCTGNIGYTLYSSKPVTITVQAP", "test": "SPR (Biacore), antibody captured on antigen peptide chip, FcγR as analyte; bound amount against control heterodimerized antibody", "experimental": "as §1, §2", "values": [{"binder": "B15", "He/Con_2b (IIb binding)": "379 relative binding activity, GpH7-A5/GpH7-B3/GpL16-k0 = 100"}, {"binder": "B16", "He/Con_2b (IIb binding)": "144 relative binding activity, GpH7-A5/GpH7-B3/GpL16-k0 = 100"}, {"binder": "B17", "He/Con_2b (IIb binding)": "167 relative binding activity, GpH7-A5/GpH7-B3/GpL16-k0 = 100"}, {"binder": "B18", "He/Con_2b (IIb binding)": "116 relative binding activity, GpH7-A5/GpH7-B3/GpL16-k0 = 100"}, {"binder": "B19", "He/Con_2b (IIb binding)": "160 relative binding activity, GpH7-A5/GpH7-B3/GpL16-k0 = 100"}]}, {"biological_target": "T2, FcγRIIIa extracellular domain with …", "test": "SPR (Biacore); relative FcγRIIIa binding divided by relative FcγRIIb binding of the same antibody", "experimental": "as §1, §2", "values": [{"binder": "B15", "He_3a/2b (IIIa/IIb)": "0.24 ratio of He/Con_3a to He/Con_2b"}, {"binder": "B16", "He_3a/2b (IIIa/IIb)": "0.67 ratio of He/Con_3a to He/Con_2b"}, {"binder": "B17", "He_3a/2b (IIIa/IIb)": "0.73 ratio of He/Con_3a to He/Con_2b"}, {"binder": "B18", "He_3a/2b (IIIa/IIb)": "0.66 ratio of He/Con_3a to He/Con_2b"}, {"binder": "B19", "He_3a/2b (IIIa/IIb)": "0.76 ratio of He/Con_3a to He/Con_2b"}]}, {"biological_target": "T1, FcγRIa", "test": "SPR (Biacore), antibody captured, FcγR as analyte; binding as % of GpH7-A5/GpH7-B3/GpL16-k0", "values": [{"binder": "B1", "He/Con_1a": "109 % of control"}, {"binder": "B2", "He/Con_1a": "108 % of control"}, {"binder": "B3", "He/Con_1a": "102 % of control"}, {"binder": "B4", "He/Con_1a": "102 % of control"}, {"binder": "B5", "He/Con_1a": "102 % of control"}, {"binder": "B6", "He/Con_1a": "101 % of control"}, {"binder": "B7", "He/Con_1a": "100 % of control"}, {"binder": "B8", "He/Con_1a": "103 % of control"}, {"binder": "B9", "He/Con_1a": "104 % of control"}, {"binder": "B10", "He/Con_1a": "104 % of control"}, {"binder": "B11", "He/Con_1a": "106 % of control"}, {"binder": "B12", "He/Con_1a": "102 % of control"}, {"binder": "B13", "He/Con_1a": "103 % of control"}, {"binder": "B14", "He/Con_1a": "105 % of control"}]}, {"biological_target": "T4, FcγRIIb (human, UniProt P31994 43-217)", "T4 construct": "extracellular domain; also called FcgRIIb; 2b; not shown: His tag at the C terminus", "T4 sequence (looked up)": "T3 sequence (looked up)", "test": "SPR (Biacore), antibody captured, FcγR as analyte; binding as % of GpH7-A5/GpH7-B3/GpL16-k0", "values": [{"binder": "B1", "He/Con_2b": "160 % of control"}, {"binder": "B2", "He/Con_2b": "156 % of control"}, {"binder": "B3", "He/Con_2b": "175 % of control"}, {"binder": "B4", "He/Con_2b": "155 % of control"}, {"binder": "B5", "He/Con_2b": "165 % of control"}, {"binder": "B6", "He/Con_2b": "199 % of control"}, {"binder": "B7", "He/Con_2b": "177 % of control"}, {"binder": "B8", "He/Con_2b": "193 % of control"}, {"binder": "B9", "He/Con_2b": "200 % of control"}, {"binder": "B10", "He/Con_2b": "150 % of control"}, {"binder": "B11", "He/Con_2b": "159 % of control"}, {"binder": "B12", "He/Con_2b": "139 % of control"}, {"binder": "B13", "He/Con_2b": "148 % of control"}, {"binder": "B14", "He/Con_2b": "193 % of control"}]}]}
